Test results from the nanobody polyreactivity screen of Harvey et al. (2022).

Test: yeast display, Sf9 membrane polyspecificity reagent, FACS + sequencing; frameworks hold sequencing errors
Method in brief: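 Nanobodies from a synthetic yeast display library (Saccharomyces cerevisiae BJ5465), induced 36–48 hours with galactose, were stained 1 hour at 4 °C with 10% biotinylated, detergent-solubilized Sf9 membrane reagent, enriched on streptavidin microbeads, then FACS-sorted. Anti-HA (expression) and streptavidin (reagent binding) fluorescence set low and high (top ~1%) gates. Polyreactivity labels come from the gate of origin. Genes were colony-PCR amplified, MiSeq 2 × 250 sequenced and filtered by CDR length.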

Sequence	polyreactivity (PSR sort gate)
QVQLVESGGGLVQAGGSLRLSCAASGITFGANAMGWYRQAPGKERELVADITWSGGDTYYADSVKGRFTISRDTAKNTVYLQLHSLKPEDTAVYYCAVDTYIYTNRRYTKFDYWGQGTQVTVSS	low polyreactivity
QVQLEESGGGLVQAGGSLRLSCAASGFIFRYYAMGWYRQAPGKERELVAAISWSGGSTYYADSVKGRFTISRDNAKNTVYLQMNSLKPEETAVDYGAADRYAILFYAEDYWGQGTQVTVSS	low polyreactivity
QVQLVESGAGIVQAGGSLRLSCAASVSTFQSYAMGLYRPAPGKERELFAAISFSGGSTYYADSVKGRFTISRDNAKNTVYLQMNSLKPEDTAVYYCAKRGWVYFHGYDYWGQGTQVTVSS	low polyreactivity
QVQLVESGGGLVQAGGSLRLSCAASGSIFVIYAMGWYRQAPGKERELVATISGGGGTNYADSVKGRFTISRDNAKNTVYLQMNSLNPEDTAVYYCAARSKVHRWRKRYDYWGQGTQVTVSS	high polyreactivity
QVQLVESGGGLVQAGGSLRLSCAASGSTIADNAMGWYRQAPGKERELVAAITRSGVRTYYADSVKGRFTISRDNAKYTVYLQMNSLKPDDSAVYYCAKRTYPSRIYDYWGQGTQVTVSS	low polyreactivity
QDQLVESGGGLVQAGGSLRLSCAASGSTFVPNAMGWYRQAPGKERELVAVISDSGVTTYYADSVKGRFTISRDNAKNTVYLQMNSLKPEDTAVYYCAARQDTWDAYLSTGEFDYWGQGTQVTVSS	high polyreactivity
QVQLVESGGGLVQAGGSLRLSCAASGFTFGSNDMGWYRQAPVKERELVAAIDGSGDTYYADSVKGRFTISRDNAKNTVYLQMNSLKPEDTAVYYCAAGYTYYSLYGYWGQGTQVTVSS	low polyreactivity
QVQLVESGGGLVQAGGSLRLSCAASGSIFDSYAMGWYRQAPGKERELVATINTSGGSTYYADSVKGRFTIHDNAKNTVYLQMNSLKPEDTAVYYCAVVVHYSTIGGGYRPRMYYWGQGTQVTVSS	low polyreactivity
QVQLVESGGGLVQAGGSLRLSCAASGRIFHHNAMVSYRQAPGKEMELVATITWSGGRTYYADSVKGRFTISRDNAKNTVYLQMNSLKPEDTAVYYCAASSYSYYGYRSYQSTYYYWGQGTQVTVSS	low polyreactivity
QVQLVESGGGLVQAGGSLRLSCAASGNIFGYYAMGWYRQAPGKERELVAAIRTRGGRTYYADSVKGRFTISRDNAKNTVYLQMNSLKPEDTAVYYCAARSIAGFWRYDYWGQGTQVTVSS	high polyreactivity
QVQLVESGGGLVQAGGSLRLSCAASGFTFHNNVMGWYRQAPGKEMELVATISKSGGSTYYADSVKGRFTISRDNAKNTVYLQMNSLKPEDTAVYYCARSYRDYGRYGYWGQGTQVTVSS	high polyreactivity
QVQLVESGGGLVQAGGSLRLSCAASGIIYGRYAMGWYRQAPGKERELVAAINASGGSTYYADSVKGRFTISRDNAKNTVYLQMNSLKPEDSAVYYCATRSTRSRTSGYYYWGQGTQVTVSS	high polyreactivity
QVQLVESGGGLVQAGGSLRLSCAASGNIVDYYGMGWYIQAPGKERELVAAINVSGDSTYYADSVKGRFTISRDNAKNTVYLQMNSLKPEDTAVYYCAADYGWGSGFEYDYWGQGTQVTVSS	low polyreactivity
QVQLVESGGGLVQAGGSLRLSCAASGSTFLVYDRGWYRQAPGKERELVAAITWSGGSTYYADSVKGRFTISRDNAKNTVYLQINSLTPEYTAVYYCAAEIHRTYSWEYPYEMYWGQGTQVTVSS	high polyreactivity
QVHLVESGGGLVQAGGSLRLSCAASGFTFFYYAMGWYRPAPGKERELVAAINSGDNTNYADSVKGRFTISRDNAKNTVYLLMNSLIPEDTAVYYCAAQDYARGVVPGRRAMGYWGQGTQVSVSS	high polyreactivity
QVQLVDSGGGLVQAGGSLRLSCAASGSTFVPNAMGWYRQAPGKERELVASITSDGGTYYADSVKGRFTISRDNAKNTVYLQMNSLKPEDTAVYYCAADDNGVWVISYWWFDYWGQGTQVTVSS	high polyreactivity
QVQLVESGGGLVQAGGSLRLSCAASGSTFGPYAMGWYRPAPGKEMELVATITRNGGSTYYADSVKGRFTISRDNAKNTVYLQMNSLKPEDTAVYYCNAEGRWSSFTQRMDYWGQGTQVTVSS	low polyreactivity
QVQLVESGGGLVQAGGSLRLSCAASGLIFGTKAMGCYRQAPGKERELVAAMSGSGGRTYYADSVKARFTISRDNAKNTVYLQMNSLKPEDTAVYYCASRFWRLHVGYGYSGQGTQVTVSS	high polyreactivity
QVQLVESGGGLVQAGGSLRLSCAASGLIFTPYAMGWYRQAPGKERELVAAISVSGGRTYYADSVKGRFTISRDNAKNTVYLQMNSLKPEDTAVYYCAASDRYGGRDYWGQGTQVTVSS	high polyreactivity
QVQLVESGGGLVHAGGSLRLSCAASGRTFNYYAMGWYRQAPGKERELVAAISKSTGNTYYADSVKGRFTISRDNAKNTVYLQMNSLKPEDTAVYYCAAKKRGSHVYQYDYCGQGTQVTVSS	low polyreactivity
QVQLVESGGALVQAGGSLRLSCAASGSIFVSNAMGWYRQAPGKERELVAAISQSGGSTYYADSVKGRFTISRDNAKNTVYLQMNSLKPEDTAVYYCATPIRSGFRIYDYWGQGTQVNVSS	low polyreactivity
LVQLVETGGGLVQAGGSLRLSCAASGSVFYSYAMGWYRQAPGKERELVAAISFSGGSTYYADSVKGRFTISRDNAKNTVYLQMNSLKPEDTAVYYCNTLSADTFDYWGQGTQVTVSS	low polyreactivity

Sequence	polyreactivity (PSR sort gate)
QVQLVESGGGLVQAGGSLRLSCAASGRIFRYYAMGWYRQAPGKERELVADIWSDGSTYYADSVKGRFTISRDNAKNTVYLQMNSLKPEDTAVYYCNAARTYYWYSAKFDYWGQGTQVTVSS	high polyreactivity
QVQLVESGGGLVQAGGSLRLSIDASGRIFYPYVMGWYRQAPGQERELVAAISDSTGSTYYADSVKGRFTISRDNAKITVYLEMNSQKPEDTAVFYCAAGWFYATYWRFYYCGQGTQVTVSS	low polyreactivity
QVQLVESGGGLVQAGGSLRLSCAASGTFYRNAMGWYRQAPGKERELVAAISSGSNTDYADSVKGRFTISRDNAKNTVYVQMNSLKPEDTALYYCNADRGDLYDLRGSGYLDGYWGQGTQVTVSS	low polyreactivity
QVQLVESGGGLVQAGGSLRLSCAASGFTFRSYAMGWYRQAPGKEREFVAAINGRSGSTYADSVKGRFTISRDNAKNTVYLQMNSLNPEDTAVYYCAAGQRHKNSNRPDNYWGQGSQVTVSS	high polyreactivity
QVQLVESGGGLVQAGGSLRLSCAASGSIFYLYAMGWYRQEPGKERELVAAITSGDSTTYADSVKGRFTISRDNAKNTVYLQMNSLIPEDTAVYYCAADWPGLVGYHNSAENDYWGQGTQVTVSS	low polyreactivity
QVQLVESGGGLLQAGGSLSLSCAASGFTFIGYAMGWYRQATGKEREFVAAISWSGGRTYYADSVKGRFTISRDNAKNTVYLQMNSLKPEDTAVYYCAARGSRKPDWGLGYWGQGTQVTVSS	high polyreactivity
QVQLVESGGRLVQAGGSLRLSCAASGLIFYTYAMGWYRKAPGKERELVADINRSDGSTYYADSVKGRFTISRDNAKNTVYLQMNSLKPEDTAVYYCAVVGPYYSRFGGRYYYWGQGTQVTVSS	low polyreactivity
QVQLVESGGGLVQAGGSLRLSCAASGFTFPYYAMGWYRQAPGKERELVAGISWDGDSTYYADSVKGRFTISRDNAKNTVYLQMNSLKPEDTAVYYCAAGYITYYYGEYGYWGQGTQVTVSS	low polyreactivity
QVHLVESGGGLVQAGGSLRLSCAASGRISFNAMGWYRQAHAKERELVAAISRRGGSTYYADSVKGRFTISRDNAKNTVSLQMNSLKPEDTAVYYCAPDIIRPVTVDYWGQGTQVTVSS	high polyreactivity
QVQLVESGGGLVQAGGSLRLSCAASGSTFSFNAMGWYRQAPGKERELVAAITGGDGTNYADSVKGRFTISRDNAKNTVYLQMNILKPEDTAVYYCAAYQWGSTEDYWFTYGYWGQGTQVTVSS	low polyreactivity
QVQLVESGGVLVQAGGSLRLSCAASGSTFVTNAMGWYRQAPGKEREFVAAISNSSGSTYYADSVKGRFTISRDNAKNTVYLQMNSLKPEDTAVYYCNATPDDWLQEDYWGQGTQVTVSS	low polyreactivity
QVQLVESGGGLVQAGGSLRLSCAASGRTFRINAMGWYRQAPGKERELVAAITYRGANTYYADSVKGRFTISRDNAKNTVYLQMNSLKPEDTAVYYCAAEYAYHHVGFGYWGQGTQVTVSS	low polyreactivity
QVQLVESGGGLVQAGGSLRLSCAASGSTFTVNAMGWYRQAPGKERELVAAISYTDSITYYADSVKGRFTISRDNAKNTVYLQMNSLKPEDTAVYYCAVDYTVYFATYSWPYLSTHEYWGQGTQVTVSS	high polyreactivity
QVQLVESGGGLVQAGGSLRLSCAPSGRYYAMGWNRQAPGKEREMVAAISSGGSTNYADSVKGRFTISRDNAKNTVYLQMNSLKPEDTAVYYCAALIRQLRYYLYYYWGQGTQVTVSS	high polyreactivity
QVQLVESGGGLVQAGGSLRLSCAASGRTFKRYAMGWYRQAPGKERELVAAITFSGGSTYYADSVKGRFTISRDNAKNTVYLQRNSLKPEDTAVYYCAADGEHYPWYYYWGQGTQVTVSS	high polyreactivity
QVQLVESGGGLVQAGGSLRLSCAASGFTFYLYAMGWYRHAPGKERELVAAISVDGGSTYYADSVKGRFTISRDNAKNTVYLQMNSLKPEDTAVYYCAARLYGRYRYDYWGQGTQVTVSS	low polyreactivity
QVQLVESGGGLVQAGGSLRLSCAASGFIFFLNAMGWYRQAPGKERELVAAISSSGGRTYYADSVKGRFTISRDNAKNTVYLQMNSLKPEDTAVYYCNAVTLYRSRTDGYWGQGTQVTVSS	high polyreactivity
QVQLVESGGGLVQAGGSLRLSCAASGSTFIYYTMGWYRQAPGKERELVAAISWRGGSTYYADSVKGRFTIARDNAKNTVYLQMNSLKPEDTAVYYCATGYLYFTSYRYNYWGQGTQVTVSS	low polyreactivity
QVQLVESGGGLVQAGGSLRLICAASGRILPLYAMGWYRQAPGKERELVADITGSDGSTYYADSVKGRFTISRDNAKNTVYLQMNSLKPEDTAVYYCATDAIGRTPSDPWDYYYWGQGTQVTVSS	low polyreactivity
QVQLVESGGGLVQAGGSLRLSCAASGSTFDYNAMGCYRQAPRKERELDAVIRSGGTTYYADSVKGRFTISRVNAKNTVYLQMNSLKPEDTAVYYCAASFQRRAGSYGGSRRYGYLGQGTQVTVSS	high polyreactivity
QVQLVESGGGLVQAGGRLRLSCAASGRTFYYNAMGWYRQAPGKERELVAAISSSGGRTYYADSVKGRFTISRDNAKNTVYLQMNSLKPEDTAVYYCAALTNARGFDYWGQGTQVTVSS	high polyreactivity
